Measured values as given in doi:10.1101/2022.12.25.521893 (bioRxiv, 2022).
Ends that are not written are not given here.

B1: endogenous E. coli lipoprotein YedD (natural protein)
chain: CAEVENYNNVVKTPAPDWLAGYWQTKGPQRALVSPEAIGSLIVTKEGDTLDCRQWQRVIAVPGKLTLMSDDLTNVTVKRELYEVERDGNTIEYDGMTMERVDRPTAECAAALDKAPLPTPLP

Target: LptDE complex from Shigella flexneri with a hexahistidine tag on LptE (Shigella flexneri, UniProt Q83SQ0;Q0T6Q1)
Assay: native MS

LptDE complex from Shigella flexneri with a hexahistidine tag on LptE, sequence (Q83SQ0 25-784, chain 1 of 2): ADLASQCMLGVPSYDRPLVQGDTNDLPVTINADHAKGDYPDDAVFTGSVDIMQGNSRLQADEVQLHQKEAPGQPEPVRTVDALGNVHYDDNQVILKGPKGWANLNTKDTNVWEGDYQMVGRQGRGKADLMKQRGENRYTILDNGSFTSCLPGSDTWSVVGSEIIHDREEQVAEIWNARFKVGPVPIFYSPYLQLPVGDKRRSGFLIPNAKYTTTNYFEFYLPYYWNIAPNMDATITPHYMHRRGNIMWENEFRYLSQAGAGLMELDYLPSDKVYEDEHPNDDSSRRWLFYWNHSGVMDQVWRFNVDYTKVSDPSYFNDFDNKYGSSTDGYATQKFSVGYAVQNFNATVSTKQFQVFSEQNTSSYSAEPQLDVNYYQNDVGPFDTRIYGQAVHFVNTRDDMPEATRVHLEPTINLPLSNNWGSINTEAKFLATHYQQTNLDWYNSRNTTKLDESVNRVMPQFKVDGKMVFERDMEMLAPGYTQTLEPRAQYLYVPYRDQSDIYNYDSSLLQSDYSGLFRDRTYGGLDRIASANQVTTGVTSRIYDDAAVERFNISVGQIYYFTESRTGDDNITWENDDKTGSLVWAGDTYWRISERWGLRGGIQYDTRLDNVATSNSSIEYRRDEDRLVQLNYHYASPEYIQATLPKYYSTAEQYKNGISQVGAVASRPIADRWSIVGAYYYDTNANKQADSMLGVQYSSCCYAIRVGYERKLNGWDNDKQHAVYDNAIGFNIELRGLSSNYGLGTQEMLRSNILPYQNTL
LptDE complex from Shigella flexneri with a hexahistidine tag on LptE, sequence (Q0T6Q1 19-193, chain 2 of 2): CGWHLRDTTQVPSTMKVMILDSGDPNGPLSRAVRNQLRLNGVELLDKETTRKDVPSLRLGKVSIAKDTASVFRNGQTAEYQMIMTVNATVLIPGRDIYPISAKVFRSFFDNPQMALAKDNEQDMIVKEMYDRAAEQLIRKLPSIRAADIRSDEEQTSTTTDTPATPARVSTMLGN

Binder	stoichiometry N
CGLKGPLYFPPADKNAPPPTKPVETQTQSTVPDKNDRATGDGPSQVNY (natural protein, also: three acyl chains (R1, R2, R3) on N-terminal Cys) [endogenous Escherichia coli lipoprotein YifL]	1
B1	1
